B1: ZER1 (parent)
chain: FDGPEAWGVCEPQREEVEERMWAA

Variants of: B1
Test: protein stability index of a GFP-peptide fusion (GPS, HEK-293T) (PSI 1-6); higher = more stable
Conditions: c terminus: a fixed tail appended
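Further: lentivirally expressed fusions sorted by FACS into six bins by GFP to DsRed ratio, PSI derived from sequencing read proportions per bin multiplied by bin number.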

Protein stability index of substitutions, site by site:
A6: E 4.45, Y 1.82, W 1.63, V 2.76, K 3.02, L 1.56, P 3.77, C 2.57, N 3.6, Q 3.59, D 4.67, I 2.43, G 3.38
Q13: T 2.43, G 2.75, R 2.21, H 2.44, E 2.86, D 2.92, Y 2.39, F 2.31, W 2.17, M 2.46, A 2.72, N 2.94, V 3.23, K 2.91, S 2.71, I 2.76
V17: F 3.62, P 2.65, R 2.24, D 2.61, I 2.26, Q 2.55, N 3.28, M 2.26, Y 2.75, E 3.18, K 2.41, H 2.77, W 2.44, L 2.34, T 2.47
E5: C 3.73, L 1.64, A 2.82, Y 2.76, H 2.59, G 3.26, V 3.33, N 1.95, D 2.99, P 3.42, K 3.13, S 2.61, W 2.54, Q 3.54
V9: M 2.63, D 4.92, W 3.22, Q 3.05, T 3.15, G 3.25, P 3.08, C 2.03, I 2.09, N 3.35, Y 2.48, F 2.94, A 3.21
A23: M 3.08, P 2.66, Y 2.04, R 2.61, W 2.3, K 2.77, L 2.23, D 3.41, S 2.62, V 2.47, H 2.58, E 2.44, Q 2.61, I 2.64, F 2.16
E16: W 1.63, P 2.04, C 2.24, V 2.02, R 2.16, F 2.62, I 2.34, T 2.72, A 2.33, H 2.66, N 2.37, D 2.14, M 1.99, G 2.04
W7: C 4.66, A 4.29, E 4.54, V 4.98, Q 5.22, N 4.58, S 4.92, D 5.1, G 4.94, K 4.81, R 3.97, M 3.64, Y 3.98, P 4.52
P4: S 3.29, Q 3.25, Y 1.95, I 3.23, R 2.81, V 2.48, A 2.48, F 1.91, L 2.47, G 2.73, C 2.63, K 3.02, M 3.65, H 1.79, T 3.25
E18: Y 2.08, G 3.36, P 2.69, R 2.53, S 2.52, K 1.57, I 2.21, W 2.04, D 2.68, M 1.84, N 1.92
R20: K 2.34, P 2.92, G 2.96, C 2.6, Q 2.77, A 3.1, N 2.75, L 2.55, T 3.23, V 2.67, H 2.55, M 3.09
G8: H 2.33, K 2.25, E 4.19, N 2.62, A 1.96, Y 3.39, F 1.55, S 1.95, L 3.64, P 4.17, V 1.6, M 1.79, Q 2.74, D 3.75, R 2.42, C 2.33
C10: K 3.48, W 2.6, T 3.3, P 3.64, I 2.86, A 3.02, S 2.66, M 3.13, R 2.6, G 4.03, E 3.93, H 3.64, V 2.55, L 3.15
E19: C 2.05, V 1.98, D 2.48, W 2.05, M 2.22, T 2.87, G 2.15, P 2.21, Y 1.94, Q 2.55, A 2.68, N 2.4, R 2.35, F 2.1, H 1.91, I 2.09, S 2.45
D2: Q 2.69, W 3.21, L 2.62, E 2.08, R 1.8, I 5.1, F 1.68
W22: N 3.17, G 2.81, M 2.61, V 3.44, R 3.59, T 3.4, H 2.62, A 2.79, F 2.57, I 2.63, L 2.42, K 2.75, D 3.75, Y 3.73, Q 2.73, P 3.57
E11: A 1.87, V 1.96, T 2.58, F 1.89, K 2.12, D 2.67, W 1.81, M 3.24, Q 1.9, S 2.73, N 1.83, Y 1.87, P 2.64, R 1.93, L 1.85, H 2.55, I 3.01
E15: A 2.45, I 2.02, S 2.13, C 3.02, Y 2.32, T 2.62, D 2.43, R 2.79, M 2.34, N 2.31, K 2.92, G 2.19, L 2.2, Q 2.5
F1: C 4.17, I 4.69, P 5.04, E 4.99, Y 3.15, T 4.94, Q 4.88, K 3.97, R 4.45, D 4.33, S 4.77, L 3.93, G 4.72, M 3.3, A 5.03, N 4.87
G3: D 2.56, M 2.1, W 2.12, L 1.62, F 2.06, S 1.96, I 1.78, T 1.98, N 2.58, C 3.88, P 4.42
A24: I 2.13, P 3.05, D 2.88, E 2.64, S 2.7, R 2.76, Q 2.86, V 2.53, Y 2.49, C 3.55, H 2.56
M21: A 3.06, S 2.38, F 2.24, T 2.4, K 2.76, N 2.2, I 2.63, R 2.69, Q 2.89, W 2.46, E 3.56, P 2.47, Y 2.39, H 2.21
R14: S 2.56, Q 2.09, H 2.31, W 2.52, P 3.26, I 2.97, E 3.16, F 2.74, Y 2.46, M 3.08, V 2.16, D 2.88, N 2.86, C 2.25, T 2.54
P12: E 3.17, Q 3.22, I 2.31, G 2.69, V 2.47, F 2.93, H 3.17, K 2.9, Y 2.64, M 3.3, W 3.81, C 2.33, L 2.47, S 3.14
